Test results published in paper PMC12099206.

Assays:
[1] = molecular target: CmFDL1 expressed in chrysanthemum protoplasts (Chrysanthemum morifolium)
[2] = molecular target: CmFTL3 expressed in chrysanthemum protoplasts (Chrysanthemum morifolium)

CmTCP7 expressed in chrysanthemum protoplasts (natural protein)
decrease in Luc activity of CmCDM111Lpro:Luc in chrysanthemum protoplasts (dual-luciferase), CmTCP7, CmFTL3 and CmFDL1 co-transfected against CmFTL3 and CmFDL1 [1]: 80% | decrease in Luc activity of CmCDM111Lpro:Luc in chrysanthemum protoplasts (dual-luciferase), CmTCP7, CmFTL3 and CmFDL1 co-transfected against CmFTL3 and CmFDL1 [2]: 80%
